Source: patent EP4417623A1 (Fundació Institut de Recerca Contra la Leucèmia Josep …, dated 2024)
Where no end group is shown, it is not given here.

How the values were obtained:
[1] = target: T1, CCR9 peptide #1 MADDYGSESTSSMEDYVNFNF-C (human, extra C-terminal Cys for BSA conjugation (coated as non-conjugated or BSA-conjugated peptide)); test: ELISA screening against the immunisation peptide
T1 construct: This is the immunisation peptide; It was conjugated to BSA for the ELISA screenings; also called MADDY peptide; complete antigen peptide
T1 peptide: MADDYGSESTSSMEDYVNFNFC

Peptide 3: SSMEDYVNFN-C = target: T2, Peptide 3: SSMEDYVNFN-C (not fully specified; printed as SSMEDYVNFN-C); test: peptide ELISA titration, OD450
T2 peptide: SSMEDYVNFNC

Peptide 4: SMEDYVNFNF-C = target: T3, Peptide 4: SMEDYVNFNF-C (not fully specified; printed as SMEDYVNFNF-C); test: peptide ELISA titration, OD450
T3 peptide: SMEDYVNFNFC

Measured: binding result

B1: anti-CCR9 antibody clone 115 (antibody, V domains shown)
VH: QVQLKQSGPELVKPGTSVRVSCTASGYSFTDYIIYWVKQSHGRSLEWIGYIDPNNYNTRYSQKFKGKATLTVDKSSTSAFMHLNSLTSDDSAVYYCARDVYWGQGTTLTVSS
VL: DVVMTQTPLSLTVSLGDQASISCRSSQSLVHSNGKTYLQWYLQKPGQSPKLLIYKVSNRFSGVPDRFSGSGSGTDFTLKISRVEAEDLGVYFCAQSTHVWTFGGGTKLEIKR
notes: Murine monoclonal antibody, isotype IgG1; It was tested as hybridoma supernatant in the FACS screening and as Protein A/G purified antibody in the ELISA
binds: [1] | Peptide 3: SSMEDYVNFN-C | Peptide 4: SMEDYVNFNF-C
